US11999794B2, “Human mesothelin chimeric antigen receptors and uses thereof” (Novartis AG, priority 2013, dated 2024)

Key:
[1] = target: T1, biotinylated mesothelin ECD (Homo sapiens, UniProt Q13421); test: Surface plasmon resonance (Biacore T200) binding affinity of purified scFvs; details: for Kd: 1:1 Binding or Steady State Affinity fit
T1 construct: made in house; host or cells: HEK293F (transient)
Protocol: Binding affinity of purified scFvs was measured on a Biacore T200 system. Briefly, recombinant human biotinylated mesothelin ECD was immobilized on a streptavidin (SA) sensor chip surface at a density of 150 RU. Purified scFv was injected over the chip under constant flow rate at three-fold serial dilutions. Association and dissociation rates of the protein complex were monitored for 270 seconds and 400 seconds, respectively. Double referencing was performed against a blank immobilized flow cell and a buffer blank. Affinity was determined with a Langmuir 1:1 binding model when possible, for those scFVs where accurate fitting was not possible due to fast on and off rates, the steady state model was used.

[2] = test system: Ovcar8; test: OVCAR8 subcutaneous xenograft, single and double dose (Example 17); assay type: in vivo, NSG mice; details: for tumor growth / anti-tumor activity, single dose: 4×10^6 CAR+ T cells on day 14; for tumor growth / anti-tumor activity, double dose: 4×10^6 CAR+ T cells on days 14 and 19; for delta T/C value: day 52, versus Isotype group, single dose; for regression value / Regression (%) / Delta T/C (%): day 52; for Regression (%): double dose (second identical dose 5 days later); for Delta T/C (%): single dose of 4×10^6 CAR T cells i.v. on day 14, versus the Isotype group
Protocol: Cell line: OVCAR8 is a human ovarian cancer cell line that was derived from a patient with ovarian adenocarcinoma, and has been transduced to express mCherry. Cells were grown in RMPI medium containing 10% fetal bovine serum. This cell line grows adherent in tissue culture flasks. This cell line forms tumors in mice when implanted subcutaneously in the flank and mixed with matrigel. The addition of matrigel to the cells during the implantation allow for a matrix to develop in the flank of the mouse that provides a structure for the tumor cells to start growing on. Over 10-12 days, the matrigel plug degrades and the solid tumor that remains is made up of tumor cells and surrounding stromal cells. The OVCAR8 cells have been modified to express mCherry, so that that tumor cell growth can also be monitored by imaging the mice.
Mice: 6 week old NSG (NOD.Cg-Prkdc^scidIl2rg^tm1Wjl/SzJ) mice were received from the Jackson Laboratory (stock number 005557). Animals were allowed to acclimate in the Novartis NIBRI animal facility for at least 3 days prior to experimentation. Animals were handled in accordance with Novartis ACUC regulations and guidelines. Electronic transponders for animal identification were implanted on the left flank one day prior to tumor implantation. Mice were shaved on the right flank prior to tumor implantation.
Tumor implantation: OVCAR8 cells in log phase were harvested after tyrpsinization with 0.25% trypsin-EDTA. The cells were washed in 50 ml falcon tubes at 1200 rpm for 5 minutes, once in growth media and then two times in cold sterile PBS. The cells were resuspended in PBS at a concentration of 100×10^6 per ml and kept on ice. The PBS solution containing the cells was then mixed 1:1 with matrigel, resulting in a final concentration of 50×10^6 cells per ml of PBS-matrigel. The cells were placed on ice and immediately implanted in mice. Tumors were implanted subcutaneously in 200 ul on the right flank.
The OVCAR8 model endogenously expresses mesothelin and thus, can be used to test the in vivo efficacy of mesothelin directed CAR T cells. This model grows well when implanted subcutaneously in the flank of mice and can be calipered for tumor volume measurements. Upon implantation of 10×10^6 tumor cells in a 50:50 mix of PBS and matrigel, the tumors establish and can be accurately measured in one week. Within 13-15 days, the mean tumor volume is 100-200 mm^3, with tumors reaching an endpoint volume (1000-1200 mm^3) by 60-65 days. Anti-tumor activities of therapeutic agents are often tested once tumors are fully engrafted and matrigel resorbed. Thus, there is a large window with this model during which the anti-tumor activity of the CAR T cells can be observed.
CAR T cell dosing: Mice were dosed with 4×10^6 CART cells (13.3×10^6 total T cells) 14 days after tumor implantation. Cells were partially thawed in a 37 degree Celsius water bath and then completely thawed by the addition of 1 ml of cold sterile PBS to the tube containing the cells. The thawed cells were transferred to a 15 ml falcon tube and adjusted to a final volume of 10 mls with PBS. The cells were washed twice at 1000 rpm for 10 minutes each time and then counted on a hemocytometer. T cells were then resuspended at a concentration of 133×10^6 cells per ml of cold PBS and kept on ice until the mice were dosed. The mice were injected intravenously via the tail vein with 100 ul of the T cells for a dose of 4×10^6 CAR T cells (13.3×10^6 total T cells) per mouse. Seven mice per group were either treated with 100 ul of PBS alone (PBS) or T cells transduced with an isotype CAR (Isotype). 14 mice per group were treated with either the SS1 mesothelin CAR T cells, M5 mesothelin CAR T cells, or M11 mesothelin CART cells. Five days later the SS1, M5, and M11 groups were split in half and seven mice in each group were treated with an identical second dose of the CAR T cells. […]

[3] = test system: Ovcar3; test: Luciferase-based killing assay; assay type: cell-based, human; details: for killing of target tumor cells: E:T 10:1 to 1:1, 20 hours, FIG. 16A; for specific killing within the panel of human meso CARs: FIGS. 17A and 17B
Protocol: The ability for the CART-MSLN to target and kill tumor cells was also assessed in vitro. A luciferase-based assay was used, with tumor cell lines expressing luciferase reporters. Target cells (tumor cells) were plated at 20,000 targets/well. CART-MSLN were added at varying effector:target ratios, from 10:1, 5:1, 2.5:1, and 1:1. The cells were cultured for 20 hours, and the luminescence of each well was detected to determine the percentage of target cells killed. Luciferase-expressing Ovcar3 (ovarian cancer) and U87 mg (glioblastoma) cell lines were used as target cells.

[4] = test system: Ovcar8, SW1990 and Panc0203; test: IFNγ production of CART-MSLN (CBA-Flex), endogenous MSLN; assay type: cell-based, human; details: for IFNγ levels compared with the other CARTs: cancer cells endogenously expressing MSLN
Protocol: Plots from 20 hour flow-based killing assays using titrating Effector to Target (E:T) ratios with effector CART-MSLN cells targeting CSFE labeled K562 (FIG. 3A. non-expressing MSLN controls) and K562-Meso (FIG. 3B, K562 cells transduced to express MSLN). […] For measuring cytokine production of human scFv bearing CART-MSLN, cells were thawed and allowed to recover overnight. In addition to the humanized CART-MSLN, the SS1 CART-MSLN (murine scFv) was used for comparative purposes. CD19-BBz CART was used as a non-targeting control for background CART cell effect. SS1 CART-MSLN was used in all assays to compare assay variation. The T cells were directed towards K562, a chronic myelogenous leukemia cell line (both MSLN+ and MSLN), the MLSN-expressing ovarian cancer cell line Ovcar8, and the pancreatic cancer lines SW1990 and Panc0203. When analyzing MSLN expression by flow cytometry, we detected 10-fold lower expression of MSLN on Ovcar8 compared to MSLN+K562 cells; SW1990 expressed 10-fold less than Ovcar8. […] In addition, PMA/Ionomycin was used to evaluate the potential of T cells to respond to the endogenous immunological signals. The assay tests only an effector:target ratio of 1:1. The assay is run for 24 hours after mixing of the cells, when the media is removed for cytokine analysis using the IFN-γ CBA-Flex kit for human cytokine detection.
Background levels of cytokine produced from CART-MSLN cells after exposure to the control K562 cells not expressing MSLN were analyzed. […] Differences were dealt with by normalizing the specific IFNγ release over the maximum release (PMA/Ionomycin).

T1 sequence (Q13421 with tags, fused parts or gaps): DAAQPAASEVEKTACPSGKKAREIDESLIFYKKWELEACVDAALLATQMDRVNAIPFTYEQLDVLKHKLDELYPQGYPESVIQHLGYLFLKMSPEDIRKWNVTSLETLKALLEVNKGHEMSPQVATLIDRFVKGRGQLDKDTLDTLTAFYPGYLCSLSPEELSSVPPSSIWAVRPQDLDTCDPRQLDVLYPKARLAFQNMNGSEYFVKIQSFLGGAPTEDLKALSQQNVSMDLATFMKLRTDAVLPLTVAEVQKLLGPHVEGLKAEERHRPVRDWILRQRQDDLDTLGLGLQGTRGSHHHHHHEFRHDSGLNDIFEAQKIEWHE

Row | Molecule | ka ([1]; 1:1 Binding fit) [M⁻¹ s⁻¹] | kd ([1]; 1:1 Binding fit) [s⁻¹] | Kd [1] [nM] | tumor growth / anti-tumor activity, single dose [2] | tumor growth / anti-tumor activity, double dose [2] | delta T/C value [2] [%] | regression value ([2]; double dose) [%] | mice with complete regression ([2]; double dose) | Regression (%) [2] [%] | Delta T/C (%) [2] [%] | killing of target tumor cells [3] | specific killing within the panel of human meso CARs [3] | IFNγ response to cancer cells endogenously expressing MSLN ([4]; E:T 1:1, 24 hours) | IFNγ levels compared with the other CARTs [4]
1 | M5: human anti-mesothelin scFv SEQ ID NO: 43; full CAR SEQ ID NO: 67 (protein) scFv: QVQLVQSGAEVEKPGASVKVSCKASGYTFTDYYMHWVRQAPGQGLEWMGWINPNSGGTNYAQKFQGRVTMTRDTSISTAYMELSRLRSDDTAVYYCASGWDFDYWGQGTLVTVSSGGGGSGGGGSGGGGSGGGGSDIVMTQSPSSLSASVGDRVTITCRASQSIRYYLSWYQQKPGKAPKLLIYTASILQNGVPSRFSGSGSGTDFTLTISSLQPEDFATYYCLQTYTTPDFGPGTKVEIK | 42000 | 0.00113 | 26.9 | clear anti-tumor activity | regression as opposed to tumor growth inhibition | 30.28 | −63.90 | four out of seven mice | −63.90 | 30.28 | performed similarly well in killing target tumor cells | highest specific killing of Ovcar3 cells | responded | superior IFNγ levels
2 | M11: human anti-mesothelin scFv SEQ ID NO: 49; full CAR SEQ ID NO: 73 (protein) scFv: QVQLQQSGAEVKKPGASVKVSCKASGYTFTGYYMHWVRQAPGQGLEWMGWINPNSGGTNYAQNFQGRVTMTRDTSISTAYMELRRLRSDDTAVYYCASGWDFDYWGQGTLVTVSSGGGGSGGGGSGGGGSGGGGSDIRMTQSPSSLSASVGDRVTITCRASQSIRYYLSWYQQKPGKAPKLLIYTASILQNGVPSRFSGSGSGTDFTLTISSLQPEDFATYYCLQTYTTPDFGPGTKVEIK | – | – | 64.7 | clear anti-tumor activity | regression as opposed to tumor growth inhibition | 52.91 | −15.80 | – | −15.80 | 52.91 | performed similarly well in killing target tumor cells | highest specific killing of Ovcar3 cells | – | superior IFNγ levels
